# Measurements: patent publication US12269897
# T1: Chimeric protein #3 (mPro-mCat-hC-term-mmh) (mouse; human)
# T1 chain: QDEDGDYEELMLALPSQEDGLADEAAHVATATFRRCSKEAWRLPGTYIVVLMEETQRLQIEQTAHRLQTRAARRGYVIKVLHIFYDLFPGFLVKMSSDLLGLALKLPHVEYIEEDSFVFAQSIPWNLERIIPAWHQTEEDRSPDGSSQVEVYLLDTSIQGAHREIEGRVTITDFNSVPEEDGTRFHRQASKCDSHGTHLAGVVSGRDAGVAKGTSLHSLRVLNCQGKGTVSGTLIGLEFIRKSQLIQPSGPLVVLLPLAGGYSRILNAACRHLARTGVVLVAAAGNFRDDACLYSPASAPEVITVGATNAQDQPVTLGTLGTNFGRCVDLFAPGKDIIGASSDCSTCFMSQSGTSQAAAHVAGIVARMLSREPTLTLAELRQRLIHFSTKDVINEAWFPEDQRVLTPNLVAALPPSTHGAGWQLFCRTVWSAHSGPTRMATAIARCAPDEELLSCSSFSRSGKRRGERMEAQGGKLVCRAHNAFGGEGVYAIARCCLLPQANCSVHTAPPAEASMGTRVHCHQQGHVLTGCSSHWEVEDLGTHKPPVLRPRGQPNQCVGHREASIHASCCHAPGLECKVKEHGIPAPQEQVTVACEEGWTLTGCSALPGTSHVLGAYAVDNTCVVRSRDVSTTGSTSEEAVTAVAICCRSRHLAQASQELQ
# B1: H1M300N, fully human version (antibody, V domains shown)
# VH: EMQLVESGGGLVQPGGSLRLSCAASGFTFSSHWMKWVRQAPGKGLEWVANINQDGSEKYYVDSVKGRFTISRDNAKNSLFLQMNSLRAEDTAVYYCARDIVLMVYDMDYYYYGMDVWGQGTTVTVSS
# VL: not shown
# notes: Fully human mAb made in CHO cells
# B2: H1M300 (antibody, V domains shown)
# VH: B1 VH
# VL: not shown
# notes: Hybridoma-derived chimeric antibody (human variable, mouse constant)
# Key:
# [1] = target: hPCSK9(R215E), mmh-tagged (human, UniProt Q8NBP7 31-692); assay: SPR, mAb captured, 25C
# [2] = target: T1, Chimeric protein #3 …; assay: ELISA, mAb coated, 1.2 nM protein
# Text: After 1 hr binding at RT, the plate was washed and bound test protein detected using HRP-conjugated anti-myc polyclonal antibody (++=OD>1.0; +=OD 0.4-1.0; −=OD<0.4).
Binder,T1/2 [1] [h],OD [2] [od]
B1,1.28,
B2,,< 0.4
